The RNAGym collection of RNA variant scans (doi:10.7554/elife.90254)

B1: LINE1-full (parent)
chain: UACGUAGGUGGUUUUCCCCUGAUAGUGCUAAGGGGGCCUGGAAGUUUGGACUGGGCAGAGCUCAACACAGCGUGGCAAAGUGGCUGUGGCUAGACUGCCUCUCUGGAUUCCUCGUCACUCAGCAGGGCAUCUCUGAGAGAAAUGCC

Variants of: B1
Assay: self-cleavage, relative activity (ratio to wild type); higher = more cleavage; in vitro, sequencing; the parent is a self-cleaving ribozyme

Variant | self-cleavage
A6U U9C | 0.36
A6U U12A | 0.84
A6U U12G | 1.21
A6U U13C | 1.25
A6U U26A | 0.87
A6U U26C | 0.94
A6U U46A | 1.07
A6U U47C | 0.8
A6U U52C | 1.02
A6U U62A | 0.06
A6U U73C | 1.21
A6U U81C | 1.06
A6U U85C | 0.4
A6U U87G | 0.12
A6U U104C | 1.02
A6U U109A | 0.99
A6U U115C | 1.28
A6U U119C | 0.75
A6U U132C | 1.33
A6U U134A | 1.28
G7A | 1.08
G7A A30U | 0.92
G7A A107G | 1.22
G7A A124C | 1.37

Variant | self-cleavage
G7A A124G | 0.6
G7A A129U | 1.21
G7A A138G | 1.37
G7A A141G | 0.69
G7A A142G | 1.59
G7A C18U | 1.59
G7A C56U | 0.17
G7A C71A | 0.29
G7A C111U | 0.35
G7A G54A | 0.4
G7A G75A | 0.95
G7A U9C | 0.68
G7A U13C | 0.81
G7A U23A | 0.85
G7A U26C | 2
G7A U45A | 0.53
G7A U47C | 1.21
G7A U52A | 0.89
G7A U91C | 0.34
G7A U100C | 2.45
G7A U102C | 1.77
G7A U109C | 1.19
G7A U115C | 1.21
G7A U130C | 0.94

Variant | self-cleavage
G7A U143C | 1.29
G7C | 1.4
G7C A69G | 0.79
G7C A92G | 0
G7C A129U | 1.17
G7C A140G | 1.37
G7C G40A | 1.27
G7C G48A | 0.92
G7C U12G | 1.19
G7C U13C | 2.07
G7C U52A | 1.32
G7C U73C | 0.74
G7C U81A | 2.25
G7C U85C | 1.26
G7C U102C | 0
G7C U143C | 1.93
G7U | 1.35
G7U A30G | 0.78
G7U A57G | 0.12
G7U A65G | 0.13
G7U A65U | 0.17
G7U A107G | 1.36
G7U A124G | 1.19
G7U A136G | 1.86

Variant | self-cleavage
G7U A140G | 1.33
G7U A142G | 1.15
G7U C16U | 1.5
G7U C123U | 1.39
G7U G40A | 1.47
G7U G54A | 0.94
G7U G54C | 0.49
G7U G70A | 0.2
G7U U9C | 1.56
G7U U13A | 0.71
G7U U13C | 0.99
G7U U20C | 1.15
G7U U45C | 0.86
G7U U47A | 1.2
G7U U52C | 1.1
G7U U73C | 1.55
G7U U85A | 0.13
G7U U87A | 0.12
G7U U87C | 0.18
G7U U91A | 1.12
G7U U112A | 1.06
G7U U112C | 1.15
G7U U115C | 0.79
G7U U132C | 1.23

Variant | self-cleavage
G8A A50G | 0.85
G8A A59G | 0.16
G8A A65G | 0
G8A A67C | 0
G8A A77U | 1.23
G8A A78G | 2.03
G8A A107G | 1.58
G8A A121C | 0.46
G8A A121G | 0.54
G8A A140G | 1.55
G8A A141G | 1.1
G8A A142G | 1.45
G8A C37U | 1.31
G8A C38U | 1.41
G8A C131A | 0.51
G8A G48A | 0.44
G8A G86A | 0.09
G8A G97A | 0.41
G8A U13C | 1.05
G8A U14C | 1.32
G8A U20C | 1.59
G8A U46A | 2.02
G8A U62C | 0.05
G8A U62G | 0

Variant | self-cleavage
G8A U81C | 1.25
G8A U104A | 1.25
G8A U104C | 1.29
G8A U119A | 2.47
G8A U119C | 1.1
G8A U132C | 1.58
G8A U134C | 1.55
G8A U143C | 1.45
G8C A50G | 1.14
G8C A121C | 1.75
G8C A129G | 1.31
G8C A138G | 1.44
G8C A140G | 2.03
G8C A142G | 1.21
G8C G75A | 1.2
G8C U14G | 1.39
G8C U39C | 0.91
G8C U46C | 1.13
G8C U143A | 2.06
G8U A50G | 1.19
G8U A59U | 0.63
G8U A124U | 1.47
G8U C37G | 1.18
G8U C37U | 1.51

Variant | self-cleavage
G8U C56U | 0.28
G8U U13C | 2.33
G8U U15C | 1.62
G8U U62A | 0.12
G8U U130C | 1.66
G8U U143A | 2.02
U9A A22U | 0.89
U9A A24U | 1.01
U9A A31G | 1.35
U9A A42C | 0.56
U9A A42G | 1.14
U9A A42U | 1.09
U9A A57G | 0.98
U9A A57U | 0.19
U9A A67G | 0.58
U9A A77U | 0.85
U9A A78G | 1.13
U9A A78U | 1.65
U9A A92U | 0.73
U9A A94G | 0.27
U9A A117G | 0.96
U9A A117U | 1.11
U9A A121C | 0.46
